This test has as its target Pre-cleaved FUS (tag-free Fused in sarcoma) (UniProt P35637). Briefly: fluorescence correlation spectroscopy.
UniProt P35637, sequence (P35637 whole entry, the tested form may be a part): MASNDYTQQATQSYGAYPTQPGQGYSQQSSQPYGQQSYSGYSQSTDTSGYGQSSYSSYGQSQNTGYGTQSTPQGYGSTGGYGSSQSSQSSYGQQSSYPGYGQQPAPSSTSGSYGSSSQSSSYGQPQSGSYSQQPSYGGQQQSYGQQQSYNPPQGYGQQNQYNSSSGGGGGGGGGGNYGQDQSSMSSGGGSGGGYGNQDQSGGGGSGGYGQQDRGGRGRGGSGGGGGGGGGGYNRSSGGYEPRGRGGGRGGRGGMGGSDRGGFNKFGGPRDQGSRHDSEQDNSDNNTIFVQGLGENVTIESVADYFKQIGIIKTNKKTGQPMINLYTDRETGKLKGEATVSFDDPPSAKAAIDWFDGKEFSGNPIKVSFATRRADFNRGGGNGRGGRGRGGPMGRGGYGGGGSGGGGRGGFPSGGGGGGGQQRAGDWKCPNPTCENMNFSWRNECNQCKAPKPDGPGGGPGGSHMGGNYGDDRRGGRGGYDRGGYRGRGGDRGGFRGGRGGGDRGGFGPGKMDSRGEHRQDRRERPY

Substance “Cy3-labeled pre-cleaved FUS (from UniProt P35637 1-526) (natural protein)” showed a second critical concentration (condensate formation) of 1 µM.

The values are drawn from PMC12612064.
